Read-outs that look alike come from different tables or passages of the source.
How the values were obtained:
[1] = target: JetAB complex (JetA2B4), full-length JetA and JetB (Pseudomonas aeruginosa PA14); assay: SEC + SEC-MALS
[2] = target: JetAB complex (JetA2B4), full-length JetA and JetB (Pseudomonas aeruginosa PA14); assay: SEC + SEC-MALS; remark: listed apart in the source
[3] = target: JetC (Wadjet SMC ATPase subunit, P. aeruginosa PA14), tagless wild type (Pseudomonas aeruginosa PA14); assay: SEC + SEC-MALS
[4] = target: JetAB complex (JetA2B4), full-length JetA and JetB (Pseudomonas aeruginosa PA14); assay: SEC-MALS
[5] = target: JetD (Wadjet nuclease subunit, P. aeruginosa PA14) (Pseudomonas aeruginosa PA14); assay: SEC + SEC-MALS

“JetC (Wadjet SMC ATPase subunit, P. aeruginosa PA14), tagless wild type (natural protein)” showed a stoichiometry N (JetC per JetA2B4) [1] of 4, a stoichiometry N (JetC per JetA2B4) [2] of 2 and a stoichiometry N [3] of 2.

Work on “JetC^head (JetC^E1022Q,L783A 1-284-[…]-781-1101) (domain or fragment)” yielded a stoichiometry N (JetC^head per JetA2B4) [4] of 2.

“JetD (Wadjet nuclease subunit, P. aeruginosa PA14) (natural protein)” showed a stoichiometry N [5] of 2.

Reference: paper PMC9637719
